T1: recombinant human activated Factor VII (FVIIa) (human, UniProt P08709 61-212; P08709 213-466, ten glutamate residues of the Gla domain may be gamma-carboxylated)
T1 construct: chains tethered by a disulfide bond; also called Factor VIIa; rFVIIa
T1 sequence 1: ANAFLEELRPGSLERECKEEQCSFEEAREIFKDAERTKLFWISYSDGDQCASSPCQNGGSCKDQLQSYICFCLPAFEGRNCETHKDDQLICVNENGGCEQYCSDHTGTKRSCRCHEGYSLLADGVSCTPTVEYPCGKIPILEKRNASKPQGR
T1 sequence 2: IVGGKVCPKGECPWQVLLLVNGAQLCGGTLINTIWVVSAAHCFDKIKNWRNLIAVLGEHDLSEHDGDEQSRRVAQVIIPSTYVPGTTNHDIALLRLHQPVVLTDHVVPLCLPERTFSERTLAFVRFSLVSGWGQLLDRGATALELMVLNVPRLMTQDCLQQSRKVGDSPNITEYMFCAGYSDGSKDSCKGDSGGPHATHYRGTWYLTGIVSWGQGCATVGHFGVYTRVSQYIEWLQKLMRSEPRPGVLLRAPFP

T2: recombinant human activated Factor VII (FVIIa) (human, UniProt P08709 61-212; P08709 213-466, Gla domain: ten glutamate residues may be gamma-carboxylated)
T2 construct: two-chain form after cleavage between Arg152 and Ile153; light chain (Gla, EGF domains) and heavy chain (protease domain) tethered by a disulfide bond; also called rFVIIa; human FVIIa
T2 sequence 1: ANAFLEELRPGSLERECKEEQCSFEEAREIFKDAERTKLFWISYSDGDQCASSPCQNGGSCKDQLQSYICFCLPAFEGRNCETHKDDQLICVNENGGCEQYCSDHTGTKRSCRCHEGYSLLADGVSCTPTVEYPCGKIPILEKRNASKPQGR
T2 sequence 2: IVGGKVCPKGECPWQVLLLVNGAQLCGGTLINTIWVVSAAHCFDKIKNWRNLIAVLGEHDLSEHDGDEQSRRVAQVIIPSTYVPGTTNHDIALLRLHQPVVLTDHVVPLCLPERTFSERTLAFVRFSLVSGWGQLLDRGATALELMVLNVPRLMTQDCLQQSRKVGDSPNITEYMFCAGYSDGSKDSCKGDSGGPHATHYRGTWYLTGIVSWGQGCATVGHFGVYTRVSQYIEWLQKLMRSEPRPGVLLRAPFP

B1: biAb0001 (bispecific antibody, human IgG4 S228P, kappa)
heavy 1: QVQLQESGPGLVKPSQTLSLTCTVSGYSISSDSAWSWIRQPPGKGLEWIGYIQYSGSTNYNPSLKSRVTISRDTSKNQFSLKLSSVTAADTAVYYCARSVNYYGNSFAVGYWGQGTLVTVSSASTKGPSVFPLAPCSRSTSESTAALGCLVKDYFPEPVTVSWNSGALTSGVHTFPAVLQSSGLYSLSSVVTVPSSSLGTKTYTCNVDHKPSNTKVDKRVESKYGPPCPPCPAPEFLGGPSVFLFPPKPKDTLMISRTPEVTCVVVDVSQEDPEVQFNWYVDGVEVHNAKTKPREEQFNSTYRVVSVLTVLHQDWLNGKEYKCKVSNKGLPSSIEKTISKAKGQPREPQVYTLPPSQEEMTKNQVSLTCLVKGFYPSDIAVEWESNGQPENNYKTTPPVLDSDGSFLLYSKLTVDKSRWQEGNVFSCSVMHEALHNHYTQKSLSLSLGK
light 1: EIVLTQSPATLSLSPGERATLSCRASQGISDYLHWYQQKPGEAPRLLIKYTSQPATGIPARFSGSGSGTDFTLTISSLEPEDFAVYYCQNGHSFPLTFGQGTKLEIKRTVAAPSVFIFPPSDEQLKSGTASVVCLLNNFYPREAKVQWKVDNALQSGNSQESVTEQDSKDSTYSLSSTLTLSKADYEKHKVYACEVTHQGLSSPVTKSFNRGEC
heavy 2: not shown
light 2: DIVMTQTPLSSPVTLGQPASISCRSSQSLVHRQGNTYFHWLQQRPGQPPRLLIYKVSNRFSGVPDRFSGSGAGTDFTLKISRVEAEDVGVYYCSQSTHVPYTFGQGTKLEIKRTVAAPSVFIFPPSDEQLKSGTASVVCLLNNFYPREAKVQWKVDNALQSGNSQESVTEQDSKDSTYSLSSTLTLSKADYEKHKVYACEVTHQGLSSPVTKSFNRGEC
notes: also called anti-FVII(a)/anti-TLT-1 bispecific antibody of mAb0865 and mAb1076
B2: mAb0114 (antibody, human IgG4 S228P, kappa, V domains shown)
VH: DVQLQESGPGLVEPSQTLSLTCTVSGYSITSDSAWSWIRQFPGKKLEWMGYIQYSGSTNYNPSLKSRVTISRDTSKNQFSLKLSSVTAADTAVYYCARSVNYYGNSFAVGYWGQGTSVTVSS
VL: EIVLTQSPATLSLSPGERATLSCRASQGISDYLHWYQQKPGEAPRLLIKYTSQPATGIPARFSGSGSGTDFTLTISSLEPEDVGVYYCQNGHSFPLTFGAGTKLELKR
notes: humanized 11F2 variant, first round
B3: mAb0115 (antibody, human IgG4 S228P, kappa, V domains shown)
VH: DVQLQESGPGLVEPSQTLSLTCTVSGYSITSDSAWSWIRQPPGKKLEWMGYIQYSGSTNYNPSLKSRVTISRDTSKNQFSLKLSSVTAEDTAVYYCARSVNYYGNSFAVGYWGQGTSVTVSS
VL: EIVLTQSPATLSLSPGERATLSCRASQGISDYLHWYQQKPGEAPRLLIKYTSQPATGIPARFSGSGSGTDFTLTISSLEPEDVGVYYCQNGHSFPLTFGAGTKLELKR
notes: as for B2
B4: mAb0116 (antibody, human IgG4 S228P, kappa, V domains shown)
VH: DVQLQESGPGLVEPSQTLSLTCTVSGYSITSDSAWSWIRQFPGKKLEWMGYIQYSGSTNYNPSLKSRVTISRDTSKNQFSLKLSSVTAEDTAVYYCARSVNYYGNSFAVDYWGQGTSVTVSS
VL: EIVLTQSPATLSLSPGERATLSCRASQGISDYLHWYQQKPGEAPRLLIKYTSQPATGIPARFSGSGSGTDFTLTISSLEPEDVGVYYCQNGHSFPLTFGAGTKLELKR
notes: as for B2
B5: mAb0117 (antibody, human IgG4 S228P, kappa, V domains shown)
VH: DVQLQESGPGLVEPSQTLSLTCTVSGYSITSDSAWSWIRQFPGKGLEWMGYIQYSGSTNYNPSLKSRVTISRDTSKNQFSLKLSSVTAEDTAVYYCARSVNYYGNSFAVGYWGQGTSVTVSS
VL: EIVLTQSPATLSLSPGERATLSCRASQGISDYLHWYQQKPGEAPRLLIKYTSQPATGIPARFSGSGSGTDFTLTISSLEPEDVGVYYCQNGHSFPLTFGAGTKLELKR
notes: as for B2
B6: mAb0118 (antibody, human IgG4 S228P, kappa, V domains shown)
VH: DVQLQESGPGLVEPSQTLSLTCTVSGYSITSDSAWSWIRQFPGKKLEWIGYIQYSGSTNYNPSLKSRVTISRDTSKNQFSLKLSSVTAEDTAVYYCARSVNYYGNSFAVGYWGQGTSVTVSS
VL: EIVLTQSPATLSLSPGERATLSCRASQGISDYLHWYQQKPGEAPRLLIKYTSQPATGIPARFSGSGSGTDFTLTISSLEPEDVGVYYCQNGHSFPLTFGAGTKLELKR
notes: as for B2
B7: mAb0119 (antibody, human IgG4 S228P, kappa)
heavy: not shown
light: EIVLTQSPATLSLSPGERATLSCRASQGISDYLHWYQQKPGEAPRLLIKYTSQPATGIPARFSGSGSGTDFTLTISSLEPEDVGVYYCQNGHSFPLTFGAGTKLELKRTVAAPSVFIFPPSDEQLKSGTASVVCLLNNFYPREAKVQWKVDNALQSGNSQESVTEQDSKDSTYSLSSTLTLSKADYEKHKVYACEVTHQGLSSPVTKSFNRGEC
notes: as for B2
B8: mAb0120 (antibody, human IgG4 S228P, kappa, V domains shown)
VH: DVQLQESGPGLVEPSQTLSLTCTVSGYSISSDSAWSWIRQFPGKKLEWMGYIQYSGSTNYNPSLKSRVTISRDTSKNQFSLKLSSVTAEDTAVYYCARSVNYYGNSFAVGYWGQGTSVTVSS
VL: EIVLTQSPATLSLSPGERATLSCRASQGISDYLHWYQQKPGEAPRLLIKYTSQPATGIPARFSGSGSGTDFTLTISSLEPEDVGVYYCQNGHSFPLTFGAGTKLELKR
notes: as for B2
B9: mAb0121 (antibody, human IgG4 S228P, kappa, V domains shown)
VH: DVQLQESGPGLVEPSQTLSLTCTVSGYSITSDSAWSWIRQFPGKKLEWMGYIQYSGSTNYNPSLKSRVTISRDTSKNQFSLKLSSVTAEDTAVYYCARSVNYYGNSFAVGPWGQGTSVTVSS
VL: EIVLTQSPATLSLSPGERATLSCRASQGISDYLHWYQQKPGEAPRLLIKYTSQPATGIPARFSGSGSGTDFTLTISSLEPEDVGVYYCQNGHSFPLTFGAGTKLELKR
notes: as for B2
B10: mAb0122 (antibody, human IgG4 S228P, kappa)
heavy: not shown
light: EIVLTQSPATLSLSPGERATLSCRASQGISDYLHWYQQKPGEAPRLLIKYTSQPATGIPARFSGSGSGTDFTLTISSLEPEDVGVYYCQNGHSFPLTFGQGTKLELKRTVAAPSVFIFPPSDEQLKSGTASVVCLLNNFYPREAKVQWKVDNALQSGNSQESVTEQDSKDSTYSLSSTLTLSKADYEKHKVYACEVTHQGLSSPVTKSFNRGEC
notes: as for B2
B11: mAb0123 (antibody, human IgG4 S228P, kappa, V domains shown)
VH: DVQLQESGPGLVEPSQTLSLTCTVSGYSITSDSAWSWIRQFPGKKLEWMGYIQYSGSTNYNPSLKSRVTISRDTSKNQFSLKLSSVTAEDTAVYYCARSVNYYGNSFAVGYWGQGTSVTVSS
VL: EIVLTQSPATLSLSPGERATLSCRASQGISSYLHWYQQKPGEAPRLLIKYTSQPATGIPARFSGSGSGTDFTLTISSLEPEDVGVYYCQNGHSFPLTFGAGTKLELKR
notes: as for B2
B12: mAb0124 (antibody, human IgG4 S228P, kappa, V domains shown)
VH: DVQLQESGPGLVEPSQTLSLTCTVSGYSITSDSAWSWIRQFPGKKLEWMGYIQYSGSTNYNPSLKSRVTISRDTSKNQFSLKLSSVTAEDTAVYYCARSVNYYGNSFAVGYWGQGTSVTVSS
VL: EIVLTQSPATLSLSPGERATLSCRASQGISDYLHWYQQKPGQAPRLLIKYTSQPATGIPARFSGSGSGTDFTLTISSLEPEDVGVYYCQNGHSFPLTFGAGTKLELKR
notes: as for B2
B13: mAb0125 (antibody, human IgG4 S228P, kappa, V domains shown)
VH: DVQLQESGPGLVEPSQTLSLTCTVSGYSITSDSAWSWIRQFPGKKLEWMGYIQYSGSTNYNPSLKSRVTISRDTSKNQFSLKLSSVTAEDTAVYYCARSVNYYGNSFAVGYWGQGTSVTVSS
VL: EIVLTQSPATLSLSPGERATLSCRASQGISDYLHWYQQKPGEAPRLLIKYTSQPATGIPARFSGSGSGTDFTLTISSLEPEDVAVYYCQNGHSFPLTFGAGTKLELKR
notes: as for B2
B14: mAb0126 (antibody, human IgG4 S228P, kappa, V domains shown)
VH: DVQLQESGPGLVEPSQTLSLTCTVSGYSITSDSAWSWIRQFPGKKLEWMGYIQYSGSTNYNPSLKSRVTISRDTSKNQFSLKLSSVTAEDTAVYYCARSVNYYGNSFAVGYWGQGTSVTVSS
VL: EIVLTQSPATLSLSPGERATLSCRASQGVSDYLHWYQQKPGEAPRLLIKYTSQPATGIPARFSGSGSGTDFTLTISSLEPEDVGVYYCQNGHSFPLTFGAGTKLELKR
notes: as for B2
B15: mAb0128 (antibody, human IgG4 S228P, kappa, V domains shown)
VH: DVQLQESGPGLVEPSQTLSLTCTVSGYSITSDSAWSWIRQFPGKKLEWMGYIQYSGSTNYNPSLKSRVTISRDTSKNQFSLKLSSVTAEDTAVYYCARSVNYYGNSFAVGYWGQGTSVTVSS
VL: EIVLTQSPATLSLSAGERATLSCRASQGISDYLHWYQQKSGEAPRLLIKYTSQPATGIPARFSGSGSGTDFTLTISSLEPEDVGVYYCQNGHSFPLTFGAGTKLELKR
notes: as for B2
B16: mAb0129 (antibody, human IgG4 S228P, kappa, V domains shown)
VH: DVQLQESGPGLVEPSQTLSLTCTVSGYSITSDSAWSWIRQFPGKKLEWMGYIQYSGSTNYNPSLKSRVTISRDTSKNQFSLKLSSVTAEDTAVYYCARSVNYYGNSFAVGYWGQGTSVTVSS
VL: EIVLTQSPATLSLSPGERATLSCRASQGISDYLHWYQQKPGEAPRLLIKYASQPATGIPARFSGSGSGTDFTLTISSLEPEDVGVYYCQNGHSFPLTFGAGTKLELKR
notes: as for B2
B17: mAb0130 (antibody, human IgG4 S228P, kappa, V domains shown)
VH: DVQLQESGPGLVEPSQTLSLTCTVSGYSITSDSAWSWIRQFPGKKLEWMGYIQYSGSTNYNPSLKSRVTISRDTSKNQFSLKLSSVTAEDTAVYYCARSVNYYGNSFAVGYWGQGTSVTVSS
VL: EIVLTQSPATLSLSPGERATLSCRASQGISDYLHWYQQKPGEAPRLLIKYTSQPATGIPARFSGSGSGTDFTLTISSLEPEDFGVYYCQNGHSFPLTFGAGTKLELKR
notes: as for B2

What follows are binders tested against T1, recombinant human activated Factor VII … (assay: SPR (Biacore)).
With B1 the Kd was 0.06 nM.

Each binder was assayed against T2, recombinant human activated Factor VII … (assay: Bio-Layer Interferometry (Fortebio), antibody on anti-human tips, FVIIa 25-200 nM).
Experimental: All steps were performed in running buffer (20 mM HEPES buffer (pH 7.4), 150 mM NaCl, 5 mM CaCl2, 0.03% Tween 20, 1 mg/ml IgG-free BSA) at […] Antibodies were captured on anti-human tips (AHC, Fortebio) for 3 min at a concentration of 10 ug/ml. This was followed by a 3 min incubation to establish a baseline. Following this, association was monitored for 3 min using four different concentrations of VIIa (25 nm, 50 nM, 100 nM, and 200 nM), followed by a 3 mi dissociation. Sensorgrams were analysed using Fortebio data analysis software.
B2 was tested, and the Kd was 1.5 nM.
In the case of B3, the Kd is reported as 1.5 nM.
B4 gave a Kd of 32 nM.
Binder B5 has a Kd of 1.4 nM.
B6 showed a Kd of 1.7 nM.
B7 was tested, and the Kd was 1 nM.
Work on B8 yielded a Kd of 1.7 nM.
With B9 the Kd was 2 nM.
B10 was tested, and the Kd was 1.7 nM.
With B11 the Kd was 5.8 nM.
B12 gave a Kd of 1.8 nM.
For B13, the Kd was 1.7 nM.
Work on B14 yielded a Kd of 2.5 nM.
In the case of B15, the Kd is reported as 1.7 nM.
With B16 the Kd was 2.2 nM.
Work on B17 yielded a Kd of 1.8 nM.

Reference: patent publication US20220064329A1 (Novo Nordisk, published 2022)
